# Data as given in IntAct's records for PubMed 18715871.
# B1: Serine/threonine-protein phosphatase 4 catalytic subunit (Homo sapiens), P60510 (parent)
# chain: MAEISDLDRQIEQLRRCELIKESEVKALCAKAREILVEESNVQRVDSPVTVCGDIHGQFYDLKELFRVGGDVPETNYLFMGDFVDRGFYSVETFLLLLALKVRYPDRITLIRGNHESRQITQVYGFYDECLRKYGSVTVWRYCTEIFDYLSLSAIIDGKIFCVHGGLSPSIQTLDQIRTIDRKQEVPHDGPMCDLLWSDPEDTTGWGVSPRGAGYLFGSDVVAQFNAANDIDMICRAHQLVMEGYKWHFNETVLTVWSAPNYCYRCGNVAAILELDEHLQKDFIIFEAAPQETRGIPSKKPVADYFL
# partner: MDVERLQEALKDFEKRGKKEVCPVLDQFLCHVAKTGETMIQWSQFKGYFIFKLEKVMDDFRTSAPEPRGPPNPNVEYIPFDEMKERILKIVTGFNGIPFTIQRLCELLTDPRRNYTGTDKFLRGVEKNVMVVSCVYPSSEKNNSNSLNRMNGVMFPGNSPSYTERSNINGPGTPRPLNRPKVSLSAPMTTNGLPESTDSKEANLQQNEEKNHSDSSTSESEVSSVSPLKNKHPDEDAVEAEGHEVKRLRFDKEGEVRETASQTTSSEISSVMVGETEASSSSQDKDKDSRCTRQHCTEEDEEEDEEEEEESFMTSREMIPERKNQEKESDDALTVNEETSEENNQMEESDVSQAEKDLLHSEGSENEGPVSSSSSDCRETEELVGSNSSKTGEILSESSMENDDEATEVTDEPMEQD
# B2: Serine/threonine-protein phosphatase 4 catalytic subunit (Homo sapiens), P60510 (parent)
# chain: B1 chain
# partner: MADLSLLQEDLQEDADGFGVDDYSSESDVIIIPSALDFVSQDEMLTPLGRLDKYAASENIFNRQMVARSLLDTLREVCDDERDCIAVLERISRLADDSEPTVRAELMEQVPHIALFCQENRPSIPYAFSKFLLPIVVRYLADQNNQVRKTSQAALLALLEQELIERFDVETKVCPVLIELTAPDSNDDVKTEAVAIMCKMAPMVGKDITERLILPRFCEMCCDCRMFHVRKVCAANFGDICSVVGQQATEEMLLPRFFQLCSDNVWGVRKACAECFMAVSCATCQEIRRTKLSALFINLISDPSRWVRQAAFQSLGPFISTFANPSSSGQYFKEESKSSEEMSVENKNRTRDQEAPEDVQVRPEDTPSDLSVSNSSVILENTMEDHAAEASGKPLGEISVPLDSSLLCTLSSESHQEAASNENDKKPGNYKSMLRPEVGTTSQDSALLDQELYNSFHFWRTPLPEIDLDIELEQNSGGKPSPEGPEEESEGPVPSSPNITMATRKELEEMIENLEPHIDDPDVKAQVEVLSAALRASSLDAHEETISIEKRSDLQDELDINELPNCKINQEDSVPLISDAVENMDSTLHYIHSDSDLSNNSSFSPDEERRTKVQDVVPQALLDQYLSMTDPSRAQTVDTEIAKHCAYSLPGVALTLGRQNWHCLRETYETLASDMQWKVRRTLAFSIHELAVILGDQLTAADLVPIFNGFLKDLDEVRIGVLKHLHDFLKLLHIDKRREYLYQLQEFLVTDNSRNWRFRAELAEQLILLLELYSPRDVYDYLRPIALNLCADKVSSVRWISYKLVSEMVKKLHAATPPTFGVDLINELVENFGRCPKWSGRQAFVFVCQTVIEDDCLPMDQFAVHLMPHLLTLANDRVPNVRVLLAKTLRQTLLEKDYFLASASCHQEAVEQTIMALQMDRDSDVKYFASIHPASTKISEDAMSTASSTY
# Variants of: B1
# Conditions: with pp4r2_human PPP4R2, Q9NY27
row,Variant,effect of a mutation on the interaction
1,MAEISDLDRQIEQLRRCELIKESEVKALCAKAREILVEESNVQRVDSPVTVCGDIHGQFYDLKELFRVGGDVPETDYLFMGDFVDRGFYSVETFLLLLALKVRYPDRITLIRGNHESRQITQVYGFYDECLRKYGSVTVWRYCTEIFDYLSLSAIIDGKIFCVHGGLSPSIQTLDQIRTIDRKQEVPHDGPMCDLLWSDPEDTTGWGVSPRGAGYLFGSDVVAQFNAANDIDMICRAHQLVMEGYKWHFNETVLTVWSAPNYCYRCGNVAAILELDEHLQKDFIIFEAAPQETRGIPSKKPVADYFL [N76D],disrupting interaction
2,MAEISDLDRQIEQLRRCELIKESEVKALCAKAREILVEKSNVQRVDSPVTVCGDIHGQFYDLKELFRVGGDVPETNYLFMGDFVDRGFYSVETFLLLLALKVRYPDRITLIRGNHESRQITQVYGFYDECLRKYGSVTVWRYCTEIFDYLSLSAIIDGKIFCVHGGLSPSIQTLDQIRTIDRKQEVPHDGPMCDLLWSDPEDTTGWGVSPRGAGYLFGSDVVAQFNAANDIDMICRAHQLVMEGYKWHFNETVLTVWSAPNYCYRCGNVAAILELDEHLQKDFIIFEAAPQETRGIPSKKPVADYFL [E39K],disrupting interaction
3,MAEISDLDRQIEQLRRCELIKESEVKALCAKAREILVEESNVQRVDSPVTVCGDIHGQFYDLKELFRVGGDVPETNYLFMGDFVDRGFYSVETFLLLLALKVRYPDRITLIRGNHESRQITQVYGFYDECLRKYGSVTVWRYCTEIFDYLSLSAIIDGKIFCVHGGLSPSIQTLDQIRTIDRKQEVPHDGPMCDLLWSDPEDTTGWGVSPRGAGYLFGSDVVAQFNAANDIDMICRAHQLVMEGYKWHFNETVLTVWSAPNYCYRCGNVAAILELDKHLQKDFIIFEAAPQETRGIPSKKPVADYFL [E277K],decreasing interaction
4,MAEISDLDRQIEQLRRCELIKESEVKALCAKAREILVEESNVQRVDSPVTVCGDIHGQFYDLKELFRVGGDVPETNYLFMGDFVDRGFYSVETFLLLLALKVRYPDEITLIRGNHESRQITQVYGFYDECLRKYGSVTVWRYCTEIFDYLSLSAIIDGKIFCVHGGLSPSIQTLDQIRTIDRKQEVPHDGPMCDLLWSDPEDTTGWGVSPRGAGYLFGSDVVAQFNAANDIDMICRAHQLVMEGYKWHFNETVLTVWSAPNYCYRCGNVAAILELDEHLQKDFIIFEAAPQETRGIPSKKPVADYFL [R107E],disrupting interaction

# Variants of: B2
# Conditions: with pp4r1_human PPP4R1, Q8TF05
row,Variant,effect of a mutation on the interaction
1,MAEISDLDRQIEQLRRCELIKESEVKALCAKAREILVEESNVQRVDSPVTVCGDIHGQFYDLKELFRVGGDVPETNYLFMGDFVDRGFYSVETFLLLLALKVRYPDEITLIRGNHESRQITQVYGFYDECLRKYGSVTVWRYCTEIFDYLSLSAIIDGKIFCVHGGLSPSIQTLDQIRTIDRKQEVPHDGPMCDLLWSDPEDTTGWGVSPRGAGYLFGSDVVAQFNAANDIDMICRAHQLVMEGYKWHFNETVLTVWSAPNYCYRCGNVAAILELDEHLQKDFIIFEAAPQETRGIPSKKPVADYFL [R107E],disrupting interaction
2,MAEISDLDRQIEQLRRCELIKESEVKALCAKAREILVEESNVQRVDSPVTVCGDIHGQFYDLKELFRVGGDVPETDYLFMGDFVDRGFYSVETFLLLLALKVRYPDRITLIRGNHESRQITQVYGFYDECLRKYGSVTVWRYCTEIFDYLSLSAIIDGKIFCVHGGLSPSIQTLDQIRTIDRKQEVPHDGPMCDLLWSDPEDTTGWGVSPRGAGYLFGSDVVAQFNAANDIDMICRAHQLVMEGYKWHFNETVLTVWSAPNYCYRCGNVAAILELDEHLQKDFIIFEAAPQETRGIPSKKPVADYFL [N76D],disrupting interaction
3,MAEISDLDRQIEQLRRCELIKESEVKALCAKAREILVEESNVQRVDSPVTVCGDIHGQFYDLKELFRVGGDVPETNYLFMGDFVDRGFYSVETFLLLLALKVRYPDRITLIRGNHESRQITQVYGFYDECLRKYGSVTVWRYCTEIFDYLSLSAIIDGKIFCVHGGLSPSIQTLDQIRTIDRKQEVPHDGPMCDLLWSDPEDTTGWGVSPRGAGYLFGSDVVAQFNAANDIDMICRAHQLVMEGYKWHFNETVLTVWSAPNYCYRCGNVAAILELDKHLQKDFIIFEAAPQETRGIPSKKPVADYFL [E277K],decreasing interaction
4,MAEISDLDRQIEQLRRCELIKESEVKALCAKAREILVEESNVQRVDSPVTVCGDIHGQFYDLKKLFRVGGDVPETNYLFMGDFVDRGFYSVETFLLLLALKVRYPDRITLIRGNHESRQITQVYGFYDECLRKYGSVTVWRYCTEIFDYLSLSAIIDGKIFCVHGGLSPSIQTLDQIRTIDRKQEVPHDGPMCDLLWSDPEDTTGWGVSPRGAGYLFGSDVVAQFNAANDIDMICRAHQLVMEGYKWHFNETVLTVWSAPNYCYRCGNVAAILELDEHLQKDFIIFEAAPQETRGIPSKKPVADYFL [E64K],disrupting interaction
